Assay results reported in patent publication US20210246218A1 (LYVGEN BIOPHARMA SUZHOU, published 2021).

How the values were obtained:
human B7-H4 protein = molecular target: T1, human B7-H4 protein (human, UniProt Q7Z7D3 29-258, limits assumed); test: ELISA, protein coated at 1 µg/mL
T1 sequence (looked up): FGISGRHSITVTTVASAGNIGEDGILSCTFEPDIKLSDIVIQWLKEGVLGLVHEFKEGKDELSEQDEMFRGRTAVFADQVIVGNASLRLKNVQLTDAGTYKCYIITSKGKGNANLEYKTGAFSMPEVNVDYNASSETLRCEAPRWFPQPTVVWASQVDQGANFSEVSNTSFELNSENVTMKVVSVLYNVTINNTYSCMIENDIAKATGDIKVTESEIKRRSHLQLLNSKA
Description: (§1) The plate was decanted and washed once; assay diluent was added at 200 μL/well. After a 1-hour incubation at room temperature, the plate was washed with PBST one time. […] These samples were added into the plate 50 μL/well. The plate was incubated 1 hour at room temperature and then washed three times with PBST. Goat anti-human IgG-H+L HRP-conjugated at 1:100,000 dilution or goat anti-mouse IgG (H+L) secondary antibody, HRP, at 1:50,000 dilution was added to the plate at 100 μL/well. The plate was incubated 1 hour at room temperature followed by washing with PBST four times. The TMB substrate solution was added 100 μL/well. The color was permitted to develop for 15 minutes and then 100 μL/well 2N H₂SO₄ was added to terminate the reaction. Absorbance at 450 nm and 620 nm was determined by a Tecan F200 Pro reader.

human TIGIT protein = molecular target: T2, human TIGIT protein (human, UniProt Q495A1 22-141); test: ELISA, protein coated at 1 µg/mL
T2 sequence (looked up): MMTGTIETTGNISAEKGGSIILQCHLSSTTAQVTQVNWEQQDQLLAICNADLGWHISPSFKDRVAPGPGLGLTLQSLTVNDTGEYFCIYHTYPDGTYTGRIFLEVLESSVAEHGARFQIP
Description: as §1

human CD19 protein = molecular target: T3, human CD19 protein (human, UniProt P15391 20-291); test: ELISA, protein coated at 1 µg/mL
T3 sequence (looked up): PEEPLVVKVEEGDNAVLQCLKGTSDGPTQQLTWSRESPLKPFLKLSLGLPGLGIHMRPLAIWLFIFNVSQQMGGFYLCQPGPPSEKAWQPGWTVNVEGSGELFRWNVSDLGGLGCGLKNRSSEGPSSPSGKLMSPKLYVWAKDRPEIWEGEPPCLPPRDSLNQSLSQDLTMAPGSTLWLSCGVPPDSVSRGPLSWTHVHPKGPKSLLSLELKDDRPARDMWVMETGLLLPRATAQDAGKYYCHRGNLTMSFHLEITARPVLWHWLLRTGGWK
Description: as §1

human B7-H4 on CHO cells = molecular target: T4, human B7-H4 on CHO cells (human, UniProt Q7Z7D3 25-282); test: flow cytometry on CHO cells over-expressing the target
T4 construct: whole, on cells
T4 sequence (looked up): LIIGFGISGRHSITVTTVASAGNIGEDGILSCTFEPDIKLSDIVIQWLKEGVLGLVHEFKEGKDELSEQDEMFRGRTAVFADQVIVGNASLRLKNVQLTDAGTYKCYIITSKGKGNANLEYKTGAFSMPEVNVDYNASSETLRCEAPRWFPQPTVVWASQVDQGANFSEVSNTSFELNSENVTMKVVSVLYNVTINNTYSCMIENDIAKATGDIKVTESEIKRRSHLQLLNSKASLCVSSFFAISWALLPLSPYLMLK
Description: (§2) The cells were resuspended in ice cold assay buffer at 2*10\hat{ }6/mL and transferred to 96-well V-bottom plate with 100 μL/well. […] The plate was incubated in the dark for 2 hours at 4° C. The cells were washed 3 times by centrifugation at 1000 g for 3 min and resuspended in 100 μL ice cold assay buffer containing goat F(ab′)₂ anti-human IgG-Fc (PE) or PE goat anti-mouse IgG antibody. The plate was incubated in the dark for another 1 hour at 4° C. The cells were washed 2 times by centrifugation at 1000 g for 3 min and resuspended in ice cold assay buffer containing 2% PFA and analyzed on the flow cytometer immediately.

human CD20 on CHO cells = molecular target: T5, human CD20 on CHO cells (human, UniProt P11836 1-297); test: as above
T5 construct: whole, on cells
T5 sequence (looked up): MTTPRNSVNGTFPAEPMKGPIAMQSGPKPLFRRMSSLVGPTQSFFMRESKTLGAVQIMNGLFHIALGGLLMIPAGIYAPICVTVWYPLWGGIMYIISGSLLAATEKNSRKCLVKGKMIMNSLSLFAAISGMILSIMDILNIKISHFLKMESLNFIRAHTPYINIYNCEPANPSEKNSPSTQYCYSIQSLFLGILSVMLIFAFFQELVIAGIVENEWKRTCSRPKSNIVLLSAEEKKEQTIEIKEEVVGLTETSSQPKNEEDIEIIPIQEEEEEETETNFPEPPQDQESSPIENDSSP
Description: as §2

human CD47 on CHO cells = molecular target: T6, human CD47 on CHO cells (human, UniProt Q08722 19-323); test: as above
T6 construct: whole, on cells
Description: as §2

human CD27 on CHO cells = molecular target: T7, human CD27 on CHO cells (human, UniProt P26842 20-260); test: as above
T7 construct: whole, on cells
T7 sequence (P26842 20-260): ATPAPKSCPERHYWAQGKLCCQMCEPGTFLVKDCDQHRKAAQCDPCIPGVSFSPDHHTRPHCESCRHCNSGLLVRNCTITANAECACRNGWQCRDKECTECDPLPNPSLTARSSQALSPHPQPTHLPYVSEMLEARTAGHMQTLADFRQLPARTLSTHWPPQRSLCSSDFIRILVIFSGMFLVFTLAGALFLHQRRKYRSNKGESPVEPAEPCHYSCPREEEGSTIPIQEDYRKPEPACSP
Description: as §2

human CD160 on CHO cells = molecular target: T8, human CD160 on CHO cells (human, UniProt O95971 25-159); test: as above
T8 construct: whole, on cells
T8 sequence (looked up): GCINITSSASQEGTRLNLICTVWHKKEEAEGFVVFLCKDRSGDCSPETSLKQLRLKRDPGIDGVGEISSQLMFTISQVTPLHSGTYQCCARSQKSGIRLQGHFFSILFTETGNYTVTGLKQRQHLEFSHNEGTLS
Description: as §2

[1] = molecular target: T9, human CD200R1 on CHO cells (human, UniProt Q8TD46 25-348); test: as above
T9 construct: whole, on cells
T9 sequence (looked up): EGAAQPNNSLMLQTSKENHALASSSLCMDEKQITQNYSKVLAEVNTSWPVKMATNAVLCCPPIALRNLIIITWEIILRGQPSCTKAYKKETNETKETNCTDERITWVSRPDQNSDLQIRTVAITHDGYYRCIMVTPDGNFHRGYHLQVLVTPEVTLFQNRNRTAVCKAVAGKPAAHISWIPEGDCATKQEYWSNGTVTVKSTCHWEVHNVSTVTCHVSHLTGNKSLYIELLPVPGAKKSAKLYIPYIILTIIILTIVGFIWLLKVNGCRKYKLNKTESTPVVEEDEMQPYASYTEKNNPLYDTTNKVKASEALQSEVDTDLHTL
Description: as §2

B1: Clone 3712-IgG1v (IgG1v/kappa) (antibody)
heavy: QVQLVQSGAEVKKPGASVKVSCKASGYTFAGFEMHWVRQAPGQGLEWMGAIDPKTGGTDYNQKFKDRVTMTRDTSISTAYMELSRLRSDDTAVYYCARDLGYFDVWGQGTLVTVSSASTKGPSVFPLAPSSKSTSGGTAALGCLVKDYFPEPVTVSWNSGALTSGVHTFPAVLQSSGLYSLSSVVTVPSSSLGTQTYICNVNHKPSNTKVDKKVEPKSCDKTHTCPPCPAPELLGPSVFLFPPKPKDTLMISRTPEVTCVVVDVEHEDPEVKFNWYVDGVEVHNAKTKPREEQYNSTYRVVSVLTVLHQDWLNGKEYKCKVSNKALPAPIEKTISKAKGQPREPQVYTLPPSREEMTKNQVSLTCLVKGFYPSDIAVEWESNGQPENNYKTTPPVLDSDGSFFLYSKLTVDKSRWQQGNVFSCSVMHEALHNHYTQKSLSLSPGK
light: DIQMTQSPSSLSASVGDRVTITCRASQDIRSNLNWYQQKPGGAVKLLIYYTSRLHSGVPSRFSGSGSGTDYTLTISSLQPEDFATYFCQQSEKLPRTFGGGTKVEIRRTVAAPSVFIFPPSDEQLKSGTASVVCLLNNFYPREAKVQWKVDNALQSGNSQESVTEQDSKDSTYSLSSTLTLSKADYEKHKVYACEVTHQGLSSPVTKSFNRGEC
notes: copies: 2 + 2
Human B7-H4 protein
  binding result: no binding (tested: 10 µg/mL and 1 µg/mL)
Human TIGIT protein
  binding result: no binding (tested: 10 µg/mL and 1 µg/mL)
Human CD19 protein
  binding result: no binding (tested: 10 µg/mL and 1 µg/mL)
Human B7-H4 on CHO cells
  binding result: no binding
Human CD20 on CHO cells
  binding result: no binding
Human CD47 on CHO cells
  binding result: no binding
Human CD27 on CHO cells
  binding result: no binding
Human CD160 on CHO cells
  binding result: no binding
[1]
  binding result: no binding
